From patent US20110052591A1 come the findings set out here.

This test concerns the target TSH receptor on mouse alveolar macrophage AM cells (AMJ2-C8) (mouse) (UniProt P47750). As to the kind of experiment: cell-based or functional assay.
Sequence of UniProt P47750 (P47750 22-764): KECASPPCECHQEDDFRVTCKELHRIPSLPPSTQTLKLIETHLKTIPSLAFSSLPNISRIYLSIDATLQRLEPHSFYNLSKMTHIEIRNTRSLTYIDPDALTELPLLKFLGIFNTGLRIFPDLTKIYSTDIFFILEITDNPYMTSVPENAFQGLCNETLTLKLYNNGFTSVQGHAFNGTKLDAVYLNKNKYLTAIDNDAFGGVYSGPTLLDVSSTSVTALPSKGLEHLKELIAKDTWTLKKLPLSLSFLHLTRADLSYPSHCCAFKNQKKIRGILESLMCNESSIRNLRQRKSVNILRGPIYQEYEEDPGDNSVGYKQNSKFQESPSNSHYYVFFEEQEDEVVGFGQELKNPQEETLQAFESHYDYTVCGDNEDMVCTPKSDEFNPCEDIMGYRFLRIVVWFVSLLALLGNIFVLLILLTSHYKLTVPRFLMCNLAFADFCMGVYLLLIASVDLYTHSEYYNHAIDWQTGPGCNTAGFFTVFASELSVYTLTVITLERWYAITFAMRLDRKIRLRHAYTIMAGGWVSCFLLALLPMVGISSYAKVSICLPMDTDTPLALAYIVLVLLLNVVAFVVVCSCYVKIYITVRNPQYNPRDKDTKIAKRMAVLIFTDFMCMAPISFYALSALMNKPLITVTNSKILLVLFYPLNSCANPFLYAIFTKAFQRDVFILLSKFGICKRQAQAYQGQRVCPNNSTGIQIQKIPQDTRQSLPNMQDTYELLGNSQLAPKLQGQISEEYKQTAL

Substance “recombinant mouse novel TSHβ splice variant (from UniProt P12656 55-138) (ligand)” displayed a cAMP response of AM cells; concentration of peak activity of 1000 nM.
In turn, “recombinant mouse native TSHβ (from UniProt P12656 21-138) (ligand)” yielded a cAMP response of AM cells; concentration of peak activity of 0.1 nM.
